Reference: patent US20250388702A1 (Dana-Farber, published 2025)

What was measured:
KIR3DL1 [1] = target: T1, KIR3DL1 (UniProt P43629 22-444, limits assumed); test: cell microarray on transfected HEK293 cells, HHLA2-mIgG2a probe, AF647 anti-mouse IgG detection
T1 construct: whole, on cells
Method: (§1) A library of ˜5500 full length cDNA clones covering more than 3,500 different plasma membrane proteins was arrayed in duplicate across 13 microarray slides (“slide sets”). Human HEK293 cells were grown above the cDNA clones and reverse-transfected. An expression vector (pIRES-hEGFR-IRES-ZsGreen1) was spotted in quadruplicate on every slide and was used to ensure that a minimal threshold of transfection efficiency had been achieved or exceeded on every slide.
(§2) Two replicate slides were screened for each of the 13 slide sets. Fluorescent images were analyzed and quantitated (for transfection efficiency) using ImageQuant software (GE). A protein ‘hit’ was defined as duplicate spots showing a raised signal compared to background levels. This was achieved by visual inspection using the images gridded on the ImageQuant software.

KIR3DL2 [2] = target: T2, KIR3DL2 (UniProt P43630 22-455, limits assumed); test: as above
T2 construct: whole, on cells
T2 sequence (P43630 22-455 limits assumed): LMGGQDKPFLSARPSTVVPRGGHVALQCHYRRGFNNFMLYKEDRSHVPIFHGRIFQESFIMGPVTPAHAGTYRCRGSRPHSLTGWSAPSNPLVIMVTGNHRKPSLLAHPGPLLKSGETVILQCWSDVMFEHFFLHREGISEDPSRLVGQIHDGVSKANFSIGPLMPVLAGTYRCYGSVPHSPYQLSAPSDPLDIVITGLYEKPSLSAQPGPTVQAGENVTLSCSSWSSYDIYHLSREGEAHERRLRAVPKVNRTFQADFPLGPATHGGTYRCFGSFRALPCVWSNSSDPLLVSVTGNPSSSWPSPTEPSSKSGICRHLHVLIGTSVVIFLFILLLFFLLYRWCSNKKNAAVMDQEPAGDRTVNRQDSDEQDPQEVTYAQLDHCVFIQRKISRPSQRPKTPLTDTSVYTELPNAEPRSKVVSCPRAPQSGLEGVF
Method: as §1, §2

KIR2DL1 [3] = target: T3, KIR2DL1 (UniProt P43626 22-348, limits assumed); test: as above
T3 construct: whole, on cells
T3 sequence (P43626 22-348 limits assumed): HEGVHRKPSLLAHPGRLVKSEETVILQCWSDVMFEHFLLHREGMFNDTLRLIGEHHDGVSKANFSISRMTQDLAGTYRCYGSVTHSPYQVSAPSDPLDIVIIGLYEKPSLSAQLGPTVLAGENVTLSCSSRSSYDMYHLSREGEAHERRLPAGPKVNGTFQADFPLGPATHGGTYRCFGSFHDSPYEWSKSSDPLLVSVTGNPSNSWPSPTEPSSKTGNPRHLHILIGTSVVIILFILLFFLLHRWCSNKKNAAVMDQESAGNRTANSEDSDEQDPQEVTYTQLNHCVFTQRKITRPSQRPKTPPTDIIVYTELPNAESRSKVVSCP
Method: as §1, §2

KIR2DL2 [4] = target: T4, KIR2DL2 (UniProt P43627 22-348, limits assumed); test: as above
T4 construct: whole, on cells
T4 sequence (P43627 22-348 limits assumed): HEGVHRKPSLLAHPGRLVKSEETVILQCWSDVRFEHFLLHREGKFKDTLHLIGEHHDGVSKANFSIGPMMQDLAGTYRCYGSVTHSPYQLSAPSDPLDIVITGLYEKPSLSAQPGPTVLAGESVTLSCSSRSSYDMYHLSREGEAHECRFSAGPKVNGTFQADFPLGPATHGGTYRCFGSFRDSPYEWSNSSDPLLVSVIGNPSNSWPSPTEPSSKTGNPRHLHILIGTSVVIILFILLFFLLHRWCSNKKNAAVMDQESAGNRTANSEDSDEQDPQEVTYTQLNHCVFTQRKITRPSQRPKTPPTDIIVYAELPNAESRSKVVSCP
Method: as §1, §2

KIR2DL4 [5] = target: T5, KIR2DL4 (UniProt Q99706 22-377, limits assumed); test: as above
T5 construct: whole, on cells
T5 sequence (Q99706 22-377 limits assumed): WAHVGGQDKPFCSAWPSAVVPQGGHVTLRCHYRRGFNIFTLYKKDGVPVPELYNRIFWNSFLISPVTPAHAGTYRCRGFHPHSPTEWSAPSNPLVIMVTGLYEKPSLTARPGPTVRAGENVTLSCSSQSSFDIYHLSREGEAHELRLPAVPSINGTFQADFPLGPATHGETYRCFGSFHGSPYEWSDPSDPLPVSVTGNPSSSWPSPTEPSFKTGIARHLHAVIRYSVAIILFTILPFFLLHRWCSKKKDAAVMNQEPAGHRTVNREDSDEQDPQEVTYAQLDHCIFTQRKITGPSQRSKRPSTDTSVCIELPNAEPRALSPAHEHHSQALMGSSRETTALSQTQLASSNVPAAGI
Method: as §1, §2

KIR2DL5A [6] = target: T6, KIR2DL5A (UniProt Q8N109 22-375, limits assumed); test: as above
T6 construct: whole, on cells
T6 sequence (Q8N109 22-375 limits assumed): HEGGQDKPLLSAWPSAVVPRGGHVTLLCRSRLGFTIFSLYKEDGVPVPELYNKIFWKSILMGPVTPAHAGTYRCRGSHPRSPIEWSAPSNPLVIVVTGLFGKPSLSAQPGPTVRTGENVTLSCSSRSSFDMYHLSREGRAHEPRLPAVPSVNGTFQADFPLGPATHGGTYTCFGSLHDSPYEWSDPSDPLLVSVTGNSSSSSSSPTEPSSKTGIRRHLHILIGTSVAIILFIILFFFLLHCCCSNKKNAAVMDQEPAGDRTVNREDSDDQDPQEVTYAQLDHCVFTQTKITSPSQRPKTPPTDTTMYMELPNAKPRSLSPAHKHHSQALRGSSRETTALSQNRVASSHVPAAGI
Method: as §1, §2

KIR2DL5B [7] = target: T7, KIR2DL5B (UniProt Q8NHK3 22-375, limits assumed); test: as above
T7 construct: whole, on cells
T7 sequence (Q8NHK3 22-375 limits assumed): as the sequence (Q8N109 22-375 limits assumed) above, with N152D, G174S counted along it
Method: as §1, §2

Human HHLA2 = target: T8, Human HHLA2 (human, UniProt Q9UM44 23-414); test: as above
T8 construct: also called B7-H7; B7-H5
T8 sequence: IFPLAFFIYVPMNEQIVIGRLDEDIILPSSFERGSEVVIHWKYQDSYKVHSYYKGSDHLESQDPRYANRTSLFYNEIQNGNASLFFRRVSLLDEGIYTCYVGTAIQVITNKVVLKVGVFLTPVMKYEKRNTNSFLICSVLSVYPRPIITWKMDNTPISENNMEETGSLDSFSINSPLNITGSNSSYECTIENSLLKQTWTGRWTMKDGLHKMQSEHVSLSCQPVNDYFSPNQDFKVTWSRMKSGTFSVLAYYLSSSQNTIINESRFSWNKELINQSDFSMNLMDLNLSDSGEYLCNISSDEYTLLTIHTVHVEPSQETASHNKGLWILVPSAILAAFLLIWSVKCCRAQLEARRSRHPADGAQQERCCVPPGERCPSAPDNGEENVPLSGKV
Method: as §1, §2

EGFR = target: T9, EGFR (human, UniProt P00533 25-1210); test: as above
T9 construct: whole, on cells; also called hEGFR
Method: as §1, §2

Human KIR3DL3 [8] = target: T10, Human KIR3DL3 (human, UniProt Q8N743 26-410); test: cell-based or functional assay
T10 sequence (Q8N743 26-410 H321N limits assumed): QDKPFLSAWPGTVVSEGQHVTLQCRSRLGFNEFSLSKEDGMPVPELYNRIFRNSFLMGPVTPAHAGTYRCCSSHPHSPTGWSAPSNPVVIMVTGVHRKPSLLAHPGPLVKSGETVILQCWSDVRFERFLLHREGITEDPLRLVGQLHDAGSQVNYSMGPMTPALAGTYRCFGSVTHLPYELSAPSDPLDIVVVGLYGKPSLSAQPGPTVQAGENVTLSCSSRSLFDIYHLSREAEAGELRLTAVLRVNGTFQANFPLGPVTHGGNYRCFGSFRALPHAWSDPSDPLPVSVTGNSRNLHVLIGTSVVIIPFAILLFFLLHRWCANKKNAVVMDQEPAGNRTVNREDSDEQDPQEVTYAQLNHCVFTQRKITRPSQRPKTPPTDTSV

KIR3DL1 [9] = target: T1, KIR3DL1; test: HEK293 cell microarray
Method: (§3) Replicate microarray slides expressing a complete KIR family cDNA panel were fixed and blocked with buffer containing PBS/0.5% BSA and incubated for 1 hour at room temperature with individual KIR3DL3 mAb hybridoma supernatants at 1:5, 1:25 and 1:250 dilutions in PBS/0.1% BSA. Cell arrays were washed with PBS and incubated for 1 hour at room temperature in PBS/0.1% BSA containing AF647-conjugated goat anti-mouse IgG (H+L) (Life Technologies, A21235). Slides were washed with PBS, dried, and imaged for ZsGreen1 and AF647 fluorescence.
as §3, with “In Table 4, replicate” for “Replicate”, “the” for “a complete”, “panel (as in FIG. 1A, FIG. 2B, and FIG. 2C)” for “panel”

KIR3DL2 [10] = target: T2, KIR3DL2; test: HEK293 cell microarray
Method: as §3
as §3, with “In Table 4, replicate” for “Replicate”, “the” for “a complete”, “panel (as in FIG. 1A, FIG. 2B, and FIG. 2C)” for “panel”

KIR2DL1 [11] = target: T3, KIR2DL1; test: HEK293 cell microarray
Method: as §3
as §3, with “In Table 4, replicate” for “Replicate”, “the” for “a complete”, “panel (as in FIG. 1A, FIG. 2B, and FIG. 2C)” for “panel”

KIR2DL2 [12] = target: T4, KIR2DL2; test: HEK293 cell microarray
Method: as §3
as §3, with “In Table 4, replicate” for “Replicate”, “the” for “a complete”, “panel (as in FIG. 1A, FIG. 2B, and FIG. 2C)” for “panel”

KIR2DL3 = target: T11, KIR2DL3 (UniProt P43628 22-341, limits assumed); test: HEK293 cell microarray
T11 construct: whole, on cells
T11 sequence (P43628 22-341 limits assumed): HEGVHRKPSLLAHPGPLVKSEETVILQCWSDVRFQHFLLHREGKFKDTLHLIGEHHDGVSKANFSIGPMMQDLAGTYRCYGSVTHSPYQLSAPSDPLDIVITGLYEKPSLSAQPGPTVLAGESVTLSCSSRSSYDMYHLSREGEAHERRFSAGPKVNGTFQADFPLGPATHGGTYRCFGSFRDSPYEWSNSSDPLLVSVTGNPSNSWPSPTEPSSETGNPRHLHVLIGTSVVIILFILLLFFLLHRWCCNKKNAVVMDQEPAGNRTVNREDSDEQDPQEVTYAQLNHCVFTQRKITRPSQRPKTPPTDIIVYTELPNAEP
Method: as §3
as §3, with “In Table 4, replicate” for “Replicate”, “the” for “a complete”, “panel (as in FIG. 1A, FIG. 2B, and FIG. 2C)” for “panel”

KIR2DL4 [13] = target: T5, KIR2DL4; test: HEK293 cell microarray
Method: as §3
as §3, with “In Table 4, replicate” for “Replicate”, “the” for “a complete”, “panel (as in FIG. 1A, FIG. 2B, and FIG. 2C)” for “panel”

KIR2DL5A [14] = target: T6, KIR2DL5A; test: HEK293 cell microarray
Method: as §3
as §3, with “In Table 4, replicate” for “Replicate”, “the” for “a complete”, “panel (as in FIG. 1A, FIG. 2B, and FIG. 2C)” for “panel”

KIR2DL5B [15] = target: T7, KIR2DL5B; test: HEK293 cell microarray
Method: as §3
as §3, with “In Table 4, replicate” for “Replicate”, “the” for “a complete”, “panel (as in FIG. 1A, FIG. 2B, and FIG. 2C)” for “panel”

KIR2DS1 = target: T12, KIR2DS1 (UniProt Q14954 22-304, limits assumed); test: HEK293 cell microarray
T12 construct: whole, on cells
T12 sequence (Q14954 22-304 limits assumed): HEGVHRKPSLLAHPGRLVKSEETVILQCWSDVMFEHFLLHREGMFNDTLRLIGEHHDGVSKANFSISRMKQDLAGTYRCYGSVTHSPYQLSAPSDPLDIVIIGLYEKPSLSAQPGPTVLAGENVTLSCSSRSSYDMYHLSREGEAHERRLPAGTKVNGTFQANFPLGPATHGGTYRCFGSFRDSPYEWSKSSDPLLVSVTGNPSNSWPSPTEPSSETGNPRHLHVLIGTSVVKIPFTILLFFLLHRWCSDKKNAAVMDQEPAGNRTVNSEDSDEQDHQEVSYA
Method: as §3
as §3, with “In Table 4, replicate” for “Replicate”, “the” for “a complete”, “panel (as in FIG. 1A, FIG. 2B, and FIG. 2C)” for “panel”

KIR2DS2 = target: T13, KIR2DS2 (UniProt P43631 22-304, limits assumed); test: HEK293 cell microarray
T13 construct: whole, on cells
T13 sequence (P43631 22-304 limits assumed): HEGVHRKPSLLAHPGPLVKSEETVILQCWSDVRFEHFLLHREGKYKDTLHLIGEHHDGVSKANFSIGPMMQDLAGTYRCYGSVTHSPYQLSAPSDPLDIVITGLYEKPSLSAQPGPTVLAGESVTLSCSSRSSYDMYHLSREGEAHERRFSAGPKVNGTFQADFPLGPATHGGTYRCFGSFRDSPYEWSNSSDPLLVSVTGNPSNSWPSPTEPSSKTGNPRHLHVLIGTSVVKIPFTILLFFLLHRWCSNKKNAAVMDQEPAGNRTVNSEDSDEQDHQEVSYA
Method: as §3
as §3, with “In Table 4, replicate” for “Replicate”, “the” for “a complete”, “panel (as in FIG. 1A, FIG. 2B, and FIG. 2C)” for “panel”

KIR2DS3 = target: T14, KIR2DS3 (UniProt Q14952 22-304, limits assumed); test: HEK293 cell microarray
T14 construct: whole, on cells
T14 sequence (Q14952 22-304 limits assumed): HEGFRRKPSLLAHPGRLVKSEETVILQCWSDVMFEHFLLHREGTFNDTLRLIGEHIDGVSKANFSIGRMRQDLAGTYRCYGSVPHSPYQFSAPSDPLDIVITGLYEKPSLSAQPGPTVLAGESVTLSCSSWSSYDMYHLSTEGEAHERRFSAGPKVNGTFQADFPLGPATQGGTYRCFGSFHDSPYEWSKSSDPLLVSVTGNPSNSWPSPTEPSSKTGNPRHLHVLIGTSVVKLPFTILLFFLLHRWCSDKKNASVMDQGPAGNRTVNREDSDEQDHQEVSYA
Method: as §3
as §3, with “In Table 4, replicate” for “Replicate”, “the” for “a complete”, “panel (as in FIG. 1A, FIG. 2B, and FIG. 2C)” for “panel”

KIR2DS5 = target: T15, KIR2DS5 (UniProt Q14953 22-304, limits assumed); test: HEK293 cell microarray
T15 construct: whole, on cells
T15 sequence (Q14953 22-304 limits assumed): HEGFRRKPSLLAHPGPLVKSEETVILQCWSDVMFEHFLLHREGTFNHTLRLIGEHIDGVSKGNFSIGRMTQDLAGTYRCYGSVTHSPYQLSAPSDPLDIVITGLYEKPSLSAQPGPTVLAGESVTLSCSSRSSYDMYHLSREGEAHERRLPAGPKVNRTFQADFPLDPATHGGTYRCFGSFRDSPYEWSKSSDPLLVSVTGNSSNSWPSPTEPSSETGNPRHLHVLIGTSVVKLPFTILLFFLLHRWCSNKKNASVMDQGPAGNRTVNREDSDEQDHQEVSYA
Method: as §3
as §3, with “In Table 4, replicate” for “Replicate”, “the” for “a complete”, “panel (as in FIG. 1A, FIG. 2B, and FIG. 2C)” for “panel”

KIR3DS1 = target: T16, KIR3DS1 (UniProt Q14943 22-382, limits assumed); test: HEK293 cell microarray
T16 construct: whole, on cells
T16 sequence (Q14943 22-382 limits assumed): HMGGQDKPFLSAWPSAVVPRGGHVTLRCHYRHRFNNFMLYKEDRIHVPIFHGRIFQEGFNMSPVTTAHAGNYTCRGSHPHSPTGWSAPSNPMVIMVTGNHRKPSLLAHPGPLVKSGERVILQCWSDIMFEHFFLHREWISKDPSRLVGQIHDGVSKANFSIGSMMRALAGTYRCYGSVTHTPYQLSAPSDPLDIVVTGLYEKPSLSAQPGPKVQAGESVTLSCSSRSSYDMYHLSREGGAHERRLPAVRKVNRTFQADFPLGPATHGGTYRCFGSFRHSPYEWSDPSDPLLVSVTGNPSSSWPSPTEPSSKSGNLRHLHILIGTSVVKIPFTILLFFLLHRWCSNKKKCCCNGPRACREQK
Method: as §3
as §3, with “In Table 4, replicate” for “Replicate”, “the” for “a complete”, “panel (as in FIG. 1A, FIG. 2B, and FIG. 2C)” for “panel”

Human KIR3DL3 [16] = target: T10, Human KIR3DL3; test: flow cytometry, KIR3DL3-transfected 300.19 cells
Human KIR3DL3 [17] = target: T10, Human KIR3DL3; test: flow cytometry, KIR3DL3-transfected 300.19 cells; remark: listed apart in the source
Human KIR3DL3 [18] = target: T10, Human KIR3DL3; test: flow cytometry; blockade of HHLA2-mIgG2a binding to KIR3DL3-transfected cells
Method: (§4) The indicated concentrations of KIR3DL3 mAbs were pre-incubated with KIR3DL3 transfected 300.19 cells for 30 minutes at 4° C. […] EC50 and IC50 analysis were conducted using GraphPad Prism®.

Human KIR3DL3 [19] = target: T10, Human KIR3DL3; test: flow cytometry; blockade of HHLA2-mIgG2a binding to KIR3DL3-transfected 300.19 cells; Table 3; blockade of HHLA2-mouse IgG2a binding to KIR3DL3 transfected 300.19 cells, 4° C
Method: as §4

T1 sequence (P43629 22-444 limits assumed): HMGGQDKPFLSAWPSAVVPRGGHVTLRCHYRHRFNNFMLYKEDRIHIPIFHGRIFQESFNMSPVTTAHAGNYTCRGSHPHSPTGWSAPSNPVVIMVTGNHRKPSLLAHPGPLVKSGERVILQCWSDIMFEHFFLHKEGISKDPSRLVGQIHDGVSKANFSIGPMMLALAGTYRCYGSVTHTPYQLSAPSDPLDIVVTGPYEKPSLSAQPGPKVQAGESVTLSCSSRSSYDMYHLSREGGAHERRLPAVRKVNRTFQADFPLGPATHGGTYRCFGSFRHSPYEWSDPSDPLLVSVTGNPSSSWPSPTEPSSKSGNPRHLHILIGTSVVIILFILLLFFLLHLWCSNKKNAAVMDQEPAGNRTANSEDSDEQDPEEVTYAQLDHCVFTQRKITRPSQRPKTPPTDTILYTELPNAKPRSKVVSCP

B1: Human HHLA2-mIgG2a fusion protein (Fc fusion)
chain: IFPLAFFIYVPMNEQIVIGRLDEDIILPSSFERGSEVVIHWKYQDSYKVHSYYKGSDHLESQDPRYANRTSLFYNEIQNGNASLFFRRVSLLDEGIYTCYVGTAIQVITNKVVLKVGVFLTPVMKYEKRNTNSFLICSVLSVYPRPIITWKMDNTPISENNMEETGSLDSFSINSPLNITGSNSSYECTIENSLLKQTWTGRWTMKDGLHKMQSEHVSLSCQPVNDYFSPNQDFKVTWSRMKSGTFSVLAYYLSSSQNTIINESRFSWNKELINQSDFSMNLMDLNLSDSGEYLCNISSDEYTLLTIHTVHVEPSQETASHN
notes: also called HHLA2-Ig; HHLA2-mouse IgG2a; not shown: mutated at IgG2a L235E, E318A, K320A, K322A
binding result (KIR3DL1 [1]): no binding (tested: 20 ug/ml)
binding result (KIR3DL2 [2]): no binding (tested: 20 ug/ml)
binding result (KIR2DL1 [3]): no binding (tested: 20 ug/ml)
binding result (KIR2DL2 [4]): no binding (tested: 20 ug/ml)
binding result (KIR2DL4 [5]): no binding (tested: 20 ug/ml)
binding result (KIR2DL5A [6]): no binding (tested: 20 ug/ml)
binding result (KIR2DL5B [7]): no binding (tested: 20 ug/ml)
binding result (Human HHLA2): no binding (tested: 20 ug/ml)
binding result (EGFR): no binding (tested: 20 ug/ml)

B2: KIR3DL3 mAb 574.2.1G7.9.9 (antibody, IgG2b, V domains shown)
VH: ELKLEESGGGLVQPGGSMKLSCVASGFTFSNYWMNWVRQSPEKGLEWIAEIRLKSNNYATHYAESVKGRFTISRDDSKSSVYLQMNNLRAEDTGIFYCTPFYGSSFPYWGQGTLVTVSA
VL: DIQMTQTTSSLSASLGDRVTISCRASQDISNYLNWYQQKPDGTVKLLIYYTSILQLGVPPRFSGSGSGTDYSLTISNLEQEDIATYFCQQGNTLPFTFGAGTKVELK
notes: Mouse hybridoma antibody, IgG2b; only variable domains given; also called AVS-3701
Jurkat IL-2 Luciferase Activation, EC50 (Human KIR3DL3 [8]): 0.37 µg/mL
Jurkat IL-2 Luciferase, Fold Activation (Human KIR3DL3 [8]): 9.9 fold
binding result (KIR3DL1 [9]): no binding (tested: supernatant 1:5, 1:25, 1:250)
binding result (KIR3DL2 [10]): no binding (tested: supernatant 1:5, 1:25, 1:250)
binding result (KIR2DL1 [11]): no binding (tested: supernatant 1:5, 1:25, 1:250)
binding result (KIR2DL2 [12]): no binding (tested: supernatant 1:5, 1:25, 1:250)
binding result (KIR2DL3): no binding (tested: supernatant 1:5, 1:25, 1:250)
binding result (KIR2DL4 [13]): no binding (tested: supernatant 1:5, 1:25, 1:250)
binding result (KIR2DL5A [14]): no binding (tested: supernatant 1:5, 1:25, 1:250)
binding result (KIR2DL5B [15]): no binding (tested: supernatant 1:5, 1:25, 1:250)
binding result (KIR2DS1): no binding (tested: supernatant 1:5, 1:25, 1:250)
binding result (KIR2DS2): no binding (tested: supernatant 1:5, 1:25, 1:250)
binding result (KIR2DS3): no binding (tested: supernatant 1:5, 1:25, 1:250)
binding result (KIR2DS5): no binding (tested: supernatant 1:5, 1:25, 1:250)
binding result (KIR3DS1): no binding (tested: supernatant 1:5, 1:25, 1:250)
Kd (Human KIR3DL3 [16]): 0.13 µg/mL
EC50 (Human KIR3DL3 [17]): 0.13 µg/mL
IC50 (Human KIR3DL3 [18]): 0.61 µg/mL
IC50 (Human KIR3DL3 [19]): 0.06 µg/mL
